This passage reports switch fluorescence ratio results from the supplement of paper PMC10126150.

± gives the standard deviation of the averaged measurements.
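Also: ATP exposure 15 min at 22 °C before imaging.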

The test system of the series is ATP. The series can be described thus: switch fluorescence ratio, 500 uM ATP over buffer (Cy3 cluster intensity, sum of 5 cycles each) (fold (ratio)); higher = stronger signal-on switching upon ATP binding; sequences stand for … in TCGTCGGCAGCGTCAGATGTGTATAAGAGACAGTTTTTTTTTTTTTTTTTTTTTTTTT…TC. The note with it: aptamer strand: ATP DNA aptamer (quencher-CACCTGGGGGAGTATTGCGGAGGAAGG + anchor), 100 nM annealed; ATP concentration: 500 uM. Summed up: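 Values give the fluorescence ratio for each switch-domain sequence, averaged from per-cluster ratios of summed target-cycle to summed buffer-cycle Cy3 intensity. The Cy3-labelled switching-strand clusters sat on a modified Illumina MiSeq flow-cell, were annealed to 100 nM quencher-labelled ATP aptamer, and were imaged in selection buffer, then after 15 min with 500 uM ATP at 22 °C. Five cycles ran with NaOH stripping and re-annealing between them, and clusters outside 100-1000 RFU were excluded.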
As for GAATGACGGA, the switch fluorescence ratio was 1.02 ± 0.057. As to CAAAGGGGCG, the switch fluorescence ratio amounted to 0.975 ± 0.045. With GCCGGGAGTC, the switch fluorescence ratio was determined as 1 ± 0.02. Turning to GTTAGTTAAA, the switch fluorescence ratio turned out to be 0.968 ± 0.02. Regarding GTTTGTGCAT, the switch fluorescence ratio was 1.025 ± 0.0083. Regarding TGGGGGTCCT, the switch fluorescence ratio is 1.01 ± 0.031. On to CGGTACATTG, for which the switch fluorescence ratio is 1.004 ± 0.0053. For GCCTGAAAAA, the switch fluorescence ratio came to 0.986 ± 0.033. In the case of GCTATTCGAA it was 1.01 ± 0.061. Regarding GGAAGGGAAA, the switch fluorescence ratio turned out to be 0.981 ± 0.029. Regarding TGGTCGGGGT, the switch fluorescence ratio came out at 1.01 ± 0.013. As for TATGGGGAGC, the switch fluorescence ratio turned out to be 0.998 ± 0.044. Turning to GCTTGCCAAA, the switch fluorescence ratio is 0.998 ± 0.0083. Turning to TCATGTTATG, the switch fluorescence ratio was determined as 0.971 ± 0.065. For CCGTTTCGTG, the switch fluorescence ratio was 0.9948 ± 0.0046.

As to ATGCATAGGC, the switch fluorescence ratio turned out to be 0.983 ± 0.011.

With ATTATCGGTA, the switch fluorescence ratio was 0.974 ± 0.058. CACGGTACGT: the switch fluorescence ratio was 1.06 ± 0.022. Next, ATGTGTATCG: 0.969 ± 0.039; TTATGCTGTT: 1 ± 0.011. For the sequence AATTGTTGTG, the switch fluorescence ratio was found to be 1 ± 0.022. For the sequence TTCATGAATT, the switch fluorescence ratio was determined as 0.9956 ± 0.0056. In the case of TTTTTTTCTC it was 0.992 ± 0.056. As to GGTGACTTGG, the switch fluorescence ratio turned out to be 1.01 ± 0.055. Consider AGGGTTTGCG, for which the switch fluorescence ratio turned out to be 1.04 ± 0.042. For CGGGGGAGGT, the switch fluorescence ratio is 0.989 ± 0.017. Next, CTTTTTGGGA: 0.987 ± 0.012; AACTAGTCAA: 1.015 ± 0.0081; GTTATTTTAA: 0.9846 ± 0.0027.

For the sequence TGTAAGGTGA, the switch fluorescence ratio worked out at 1.03 ± 0.022. For the sequence CCTTTTGCCA, the switch fluorescence ratio was determined as 1.1 ± 0.028.

For TTGACTTGTT, the switch fluorescence ratio stood at 1.02 ± 0.068. In the case of TGTGAGGCGC, the switch fluorescence ratio is 1 ± 0.044. In the case of GTGTTTTGTC, the switch fluorescence ratio is 1.02 ± 0.068. Consider GTTATCACTG, for which the switch fluorescence ratio stood at 1.02 ± 0.014. As to GCGGGAAACT, the switch fluorescence ratio was found to be 1.05 ± 0.032. Consider TTAAACGCGG, for which the switch fluorescence ratio turned out to be 1.05 ± 0.066. With GGGGGGTTCT, the switch fluorescence ratio came out at 1.01 ± 0.042. As for TTGATTGGAT, the switch fluorescence ratio was found to be 1 ± 0.014.

Regarding AGTTGTGGGC, the switch fluorescence ratio came out at 0.968 ± 0.018. Turning to TCATGCAGAT, the switch fluorescence ratio is 1.02 ± 0.056. For GGTCTCTTAC, the switch fluorescence ratio was found to be 1.02 ± 0.037. Consider GGTGGGGCAC, for which the switch fluorescence ratio was 0.999 ± 0.041. As to CCTCAAAGCT, the switch fluorescence ratio came to 1.794 ± 0.0088.

Take GGGGTCATGC: the switch fluorescence ratio is 0.97 ± 0.041. As for TTGGGTAATA, the switch fluorescence ratio is 1.05 ± 0.087.

Turning to TCTCCTTTTT, the switch fluorescence ratio was found to be 1.02 ± 0.053.

Regarding AGATTGGTTC, the switch fluorescence ratio was 0.9953 ± 0.0044. GGGGGCACTC: the switch fluorescence ratio came to 0.986 ± 0.031. In the case of AGTTGGCGGC it was 1.02 ± 0.039; in that of GAGTTTAGGA, 0.969 ± 0.034; in that of TATGACGTTA, 1 ± 0.048. In the case of CCTTGTAGGT it was 1.02 ± 0.038; in that of ATGGGCATTA, 1 ± 0.017.

Take TTTATAATCT: the switch fluorescence ratio is 1.05 ± 0.019.

For the sequence GGGTTTGGGT, the switch fluorescence ratio amounted to 1.01 ± 0.053. Turning to GTGTATTTTG, the switch fluorescence ratio was 0.996 ± 0.014. AGGAGGTATG: the switch fluorescence ratio came out at 0.976 ± 0.027. As for GGGGGTTGAT, the switch fluorescence ratio stood at 0.991 ± 0.069.

On to TTCGTTGATG, for which the switch fluorescence ratio was 0.985 ± 0.016.

ACGTGACGGG: the switch fluorescence ratio stood at 1.07 ± 0.029. Take CGTGGGGGCT: the switch fluorescence ratio is 1 ± 0.019. In the case of CCAGGATGCG it was 0.971 ± 0.035; in that of GGGTGGCTGG, 0.961 ± 0.049; in that of TTTTGGCAAC, 1.04 ± 0.079. In the case of TAATAGGAAG, the switch fluorescence ratio worked out at 1.26 ± 0.43.
